21 molecules from patent US20220073643A1 can be followed below.

To fix the notation:
B1: 231H4G11 (antibody, V domains shown)
VH: QAYLQQSGAELVRSGASVKMSCKASGYTFTSHNIHWVKQTPGQGLEWIGYISPGNGYTNYNQKFRGKATLTADTSSSTAYMQISSLTSEDSAVYFCTRDYYGNSFAYWGQGTLVTVSA
VL: DIVMTQSPSSLTEKAGERVSMSCKSSQSLFNSGSQKNYLTWYQQKPGQPPKLLIYWASTRESGVPDRFSGSGSGTDFTLTISSVQAEDLAVYYCQNNYWFPFTFGAGTKLELK
B2: 232D7C8 (antibody, V domains shown)
VH: QAYLQQSGAELVRSGASVKMSCKASGYTFTSHNMHWVKQTPGQGLEWIGYIYPGNGGTNYNQKFKGKATLTADTSSSTAYMQISSLTSEDSAVYFCARDYFGNSFAYWGQGTLVTVSA
VL: DILMTQSPSSLTATAGEKVSMSCKSSQSLFNSGNQRNYLTWYQQRPGQPPKLLIYWASTRESGVPDRFTGSGSGTDFTLTISSVQAEDLAVYYCQNDYRYPFTFGAGTKLELK
B3: 425B3D5 (antibody, V domains shown)
VH: DVQLVESGGGLVQPGGSRKLSCAASGFTFSGFGMHWIRQTPEKGLEWVAYISSGSRPIYYADTVQGRFTISRDNPKNTLFLQMTSLRSEDTAMYFCARFYYGNSFDHWGQGTLVTVSS
VL: DIVMTQSPSFLTVTAGEKVTMSCKSSQSLLNSGNQKNYLTWYQQKPGQPPKLLIYWASTRESGVPDRFTGSGSGTDFTLTISSVQAEDLALYYCQNAYSFPLTFGAGTKLELK
B4: 232C5E3 (antibody, V domains shown)
VH: QAYLQQSGAELVRSGASVKMSCKASGYTFTSHNIHWIKQTPGKGLEWIGYIYPGNGGTNYNQKFKAKATLTADTSSSTAYMQISSLTSEDSAVYFCARDYYGNSFAYWGQGTLVTVSA
VL: DIMMTQSPSSLTETAGEKVSMSCKSSQSLLNSGNQKNYLTWYQQKPGQPPKLLIYWASTRESGVPDRFSGSGSGTDFTLTISSVQAEDLAVYYCQNGYRFPFTFGAGTKLELK
B5: 426H6E11 (antibody, V domains shown)
VH: DVQLVESGGGLVQPGGSRKLSCAASGFTFSGFGMHWIRQTPEKGLEWVAYISSGSRPIYYADTVQGRFTISRDNPKNTLFLQMTSLRSEDTAMYFCARFYYGNSFDHWGQGTLVTVSS
VL: DIVMTQFPSFLTVTAGEKVTMSCKSSQTLLNSGNQKNYLTWYQQKPGQPPKLLIYWASTRESGVPDRFTGSGSGTDFTLTISSVQAEDLALYYCQNAYSFPLTFGAGTNLELK
B6: 207F8G5 (antibody, V domains shown)
VH: QAYLQQSGAELVRSGASVKMSCKASGFTFTSYNIHWVKQTPGQGLEWIGYISPGNGGSNYNLKFKDKATLTSATSSSTAYMQISSLTSEDSAVYFCATGRGFAYWGQGTLVTVSA
VL: DIVMTQSPSSLTVTPGEKVTMSCKSSQSLFNSGNQKNYLIWYQQKPGQPPKLLIYRASTRDSGVPDRFTGSGSGTDFTLTISNVQAEDLAIYYCQNDYSYPLTFGAGTKLELK
B7: 35E8D2 (antibody, V domains shown)
VH: QIQLVQSGPELKKPGETVRISCKASGYTFTTAGMQWVQKMPGKGLKWIGWINTHSRVPNFAEDFKGRFAFSLETSARIAYLQISNIKNEDMATYFCARLGKGNTMDFWGQGTSVTVSS
VL: DIVMTQSPSSLTVTVGEKVTMSCKSSQSLLNSGNQKNYLTWYQQKPGQPPKLLIYWASTRESGVPDRFTGSGSETDFTLTISSLQAEDLAVYYCQNSYSFPLTFGGGTNLEIK
B8: 232F1E4 (antibody, V domains shown)
VH: QVQLKESGPGLVAPSQSLSITCTVSGFALTTYGVSWVRQPPGKGLEWLGVIWGDGSTHYHSALISRLSIRKDNSKSQVFLKLNSLQTDDTATYYCAKPGRGNAMDYWGQGTSVTVSS
VL: DIVMSQSPSSLTVTAGEKVTMSCKSSQSLLNSGNQKNYLTWYQQKPGQSPKLLIYWASTRESGVPDRFTGSGSGTDFTLTISSMQAEDLAVYYCQNDYIYPLTFGAGTMLELK
B9: 233D5E5 (antibody, V domains shown)
VH: QAYLQQSGAELVRSGASVKMSCKASGYTFTSHNMHWVKQTPRQGLEWIGYIYPGNGDTNYNQKFKGKATLTADTSSSTAYMQISSLTSEDSAVYFCTRDYYGNSFAYWGQGTLVTVSA
VL: DIVMTQSPSSLTEKAGERVSMSCKSSQSLFNSGNQKNYLTWYQQKPGQPPKLLIYWASTRESGVPDRFTGSGSGTDFTLTISSVQAEDLAVYYCQNAYWYPFTFGAGTKLELK
B10: 425C6D3 (antibody, V domains shown)
VH: DVQLVESGGGLVQPGGSRKLSCAASGFTFSGFGMHWIRQTPEKGLEWVAYISSGSRPIYYADTVQGRFTISRDNPKNTLFLQMTSLRSEDTAMYFCARFYYGNSFDHWGQGTLVTVSS
VL: DIVMTQSPSFLTVTAGEKVTMSCKSSQSLLNSGNQKNYLTWYQQKPGQPPKLLIYWASTRESGVPDRFTGSGSGTDFTLTISSVQAEDLALYYCQNAYSFPLTFGAGTKLELK
B11: 430B3F1 (antibody, V domains shown)
VH: DVQLVESGGGLVQPGGSRKLSCAASGFTFSGFGMHWIRQTPEKGLEWVAYISSGGRPIYYADTVQGRFTISRDNPKNTLFLQMTSLRSEDTAMYFCARFYYGNSFDHWGQGTLVTISS
VL: DIVMTQSPSFLTVTAGEKVTMSCKSSQSLLNSGNQKNYLTWYQQKPGQPPKLLIYWASTRESGVPDRFTGSGSGTDFTLTISSVQAEDLALYYCQNAYSFPLTFGAGTKLELK
B12: 426D9F6 (antibody, V domains shown)
VH: DVQLVESGGGLVQPGGSRKLSCAASGFTFSGFGMHWIRQTPEKGLEWVAYISSGSRPIYYADTVKGRFTISRDNPKNTLFLQMTSLRSEDTAMYFCARFYYGNSFDHWGQGTLVTVSA
VL: DIVMTQSPSFLTVTAGEKVTMSCKSSQSLLNSGNQRNYLTWYQQKPGQPPKLLIYWASTRESGVPDRFTGSGSGTDFTLTVSSVQAEDLALYYCQNAYSFPLTFGAGTKLELK
B13: 231C11E9 (antibody, V domains shown)
VH: EVMLVESGGGLVKPGGSLKLSCAASGFTFNNYVMCWVRQTPEKRLEWVATISSGNFYTYYPDSVKGRFTISRDNAKNTLYLQMSSLRSEDTAIYYCASLGRGNALDNWGQGTSVTVSS
VL: DIVMTQSPASLTVTAKEKVTMSCRSSQSLLNSGNQKNYLTWYQQKPGQPPKLLIYWASTRESGVPDRFTGSGSGTDFTLTISSVQAEDLAVYYCQNDYSYPFTFGSGTKLEIK
B14: 222B6G5 (antibody, V domains shown)
VH: QTYLQQSGAELVRSGASVKMSCKASGYTFTSYNIHWVKQTPGQGLEWIGYISPGNGGTYYNLKFKDKATLTTATSSSTAYMQISSLTSEDSAVYFCATGRGFAYWGQGTLVTVSA
VL: DIVMTQSPSSLTVTPGEKVTMSCKSSQSLFNSGNQKNYLIWYQQKPGQPPKLLIYRASTRDSGVPDRFTGSGSGTDFTLTISNVQAEDLAVYYCQNDYSYPLTFGAGTKLELK
B15: 423C10E1 (antibody, V domains shown)
VH: DVQLVESGGGLVQPGGSRKLSCVTSGFTFSSFGMHWVRQAPEKGLEWVAFISGGGSPIFYADSVKGRFTVSRDNPKNTLFLQMTGLRSEDTAMYFCARFYFGNSFAYWGQGTLVTVSA
VL: DIVMTQSPSSLTVTAGEKVTMNCRSSQSLFNSGNQKNYLTWYQQKPGQSPKLLIYWASTRESGVPVRFTGSGSGTDFTLTISSVQAEDLAVYYCQTSFNYPLTFGPGTKLELK
B16: 226A4B5 (antibody, V domains shown)
VH: QAYLQQSGAELVRSGASVRMSCKASGFTFTSYNIHWVKQTPGQGLEWIGYIYPGSGGSNYNQKFMGKATLTADTSSSTVYMQISSLTSEDSAVYFCATGRGFAYWGQGTLVTVSA
VL: DIVMTQSPSSLTVTAGEKVTMSCKSSQSLFNSGNQKNYLTWYQQKPGQPPKLLIYRASTRESGVPDRFTGSGSGTDFTLTISSVQAEDLAVYYCQNDYSYPLTFGTGTKLELK
B17: 182D10F1 (antibody, V domains shown)
VH: QAYLQQSGAELVRSGASVKMSCKASGYTFSSYNMHWVKQTPGQGLEWIGYIYPGNGGTNYNQKFKGKATLTADTSSSTAYMQISSLTSEDSAVYFCLTGRGFTYWGQGTLVTVSA
VL: DIVMTQSPSSLTVTAGEKVTMNCKSSQSLFNSGNQKNYLTWYQQKPGQPPKLLIYRASTRESGVPDRFTGSGSGTDFTLTISSVQAEDLAVYYCQNDYSYPLTFGVGTKLELK
B18: 61H12G10 (antibody, V domains shown)
VH: QVQLKESGPGLVAPSQSLSITCTVSGFSLTDYGVSWIRQPPGKGLEWLGVIWGGGSTYYNSALKSRLIISKDNSKSQVFLKMNSLQTDDTAIYYCAKHHYGNACDYWGQGTTLTVSS
VL: DIVMTQSPSSLTVTAGEKVTMSCKSSQSLFNSGNLKNYLTWYQQKPGQPPKLLICWASTRESGVPDRFTGSGSGTEFTLTISSVQAEDLAVYYCQNDYSYPFTFGSGTKLEIK
B19: 69D5C1 (antibody, V domains shown)
VH: EVKLVESGGGLVQPGGSRKLSCAASGFTFRDYGMAWVRQAPGKGPEWITFISNLAYSIYYADTVTGRFTISTENAKNTLYLEMSSLRSEDTAMYYCAVIYYGNSFAYWGQGTLVTV
VL: DIVLTQSPSSLTVTAGEKVTMSCKSSQSLLNSGNLRNYLTWYQQKPGQPPKLLIYWASTRESGVPDRFTGSGSGTDFTLTISSLQAEDLAIYYCQNGYSYPFTFGSGTKLEIK
B20: 424G9G3 (antibody, V domains shown)
VH: QVQLQQSGPEVVRPGASVKMSCKGSGYTLNNFWMHWVKQRPGQGLEWIGMIDTSNGETRLNQIFKDKATLTVDKSSKTAYMQLSSLTSEDSAVYYCAPYGNFADWGQGTTLTVSS
VL: DVLLTQTPLSLPVSLGDQASISCRSSQSIVYGNGNTYLEWYLQKPGQSPKLLIYKVSSRFSGVPDRFSGSGSGTDFTLKITKVEAEDLGVYYCFQGSHVPFTFGSGTKLEIK
B21: 217D9G2 (antibody, V domains shown)
VH: QAYLQQSGAELVRSGASVKMSCKASGFTFTSYNIHWVKQTPGQGLEWIGYISPGNGGSNYNLNFKDKATLTAATSSTTAYMQISSLTSEDSAVYFCATGRGFAYWGQGTLVTVSA
VL: DIVMTQSPSSLTVTPGEKVTMSCRSSQSLFNSGNQKNYLIWYQQKPGQPPKLLIYRASTRDSGVPDRFTGSGSGTDFTLTISNVQAEDLAVYYCQNDYSYPLTFGAGTKLELK

The target in the assay is Claudin18.2-His protein (human). As to the kind of experiment: indirect ELISA on coated Claudin18.2-His. On the technique in general: ELISA stands for enzyme-linked immunosorbent assay.
By EC50 is commonly meant the concentration needed to bring the measured effect to its halfway point. The low end stands for greater potency, the high end for weaker potency. B1: the EC50 was 0.0394 µg/mL.
As for B2, the figure is 0.0305 µg/mL; as for B3, 0.0037 µg/mL; as for B4, 0.0259 µg/mL.
As for B5, the figure is 0.0224 µg/mL; as for B6, 0.0335 µg/mL; as for B7, 0.00319 µg/mL.
B8: the EC50 was 0.0509 µg/mL.
Molecule B9 came in with a 50% effective concentration (EC50) of 0.0943 µg/mL.
As for B10, the figure is 0.0114 µg/mL; as for B11, 0.0154 µg/mL.
Turning to B12, the half-maximal effective concentration (EC50) was 0.0112 µg/mL.
Molecule B13 registered an EC50 of 0.0413 µg/mL.
As for B14, the figure is 0.0201 µg/mL; as for B15, 0.0297 µg/mL; as for B16, 0.00813 µg/mL.
With B17 the figure was 0.0236 µg/mL; with B18, 0.0351 µg/mL; with B19, 0.00266 µg/mL.
As for B20, the figure is 0.03 µg/mL; as for B21, 0.028 µg/mL.
